# Laboratory results as given in patent US7268216B2, “Chimeric avidin mutants” (Licentia Oy, priority 2004, dated 2007).
# Where a chain is given by its changes, count along the chain named. Names may count otherwise. Like-named read-outs stand apart in the source and are kept apart here. Marks after values point to notes of the source that are not given here.
# B1: ChiAVD: Chimeric avidin: residues 38-58 moved from AVR4/5 to avidin (SEQ ID NO:15) (protein, listed as Gallus gallus)
# chain: MVHATSPLLLLLLLSLALVAPGLSARKCSLTGKWTNDLGSNMTIGAVNSRGEFTGTYITAVADNPGNITLSPLLGIQHKRASQPTFGFTVNWKFSESTTVFTGQCFIDRNGKEVLKTMWLLRSSVNDIGDDWKATRVGINIFTRLRTQKE
# B2: ChiAVD(I117Y): Residues 38-58 moved from AVR4/5 to avidin and mutation I117Y in 1-3 subunit interface (SEQ ID NO:16) (protein, listed as Gallus gallus)
# chain: B1 chain with I139Y
# B3: AVR4/5: Avidin-related protein encoded identically by chicken genes AVR4 and AVR5 (protein, UniProt P56734 25-150, looked up)
# Avidin-related protein 4/5: ARKCSLTGKWTNNLGSIMTIRAVNSRGEFTGTYLTAVADNPGNITLSPLLGIQHKRASQPTFGFTVHWNFSESTTVFTGQCFIDRNGKEVLKTMWLLRSSVNDISYDWKATRVGYNNFTRLCTVEE
# B4: AVR4/5(C122S): AVR4/5 with the cysteine forming intermonomeric disulphide bridges mutated to serine; insect cell produced (protein, UniProt P56734 25-150, looked up, variant C122S)
# Avidin-related protein 4/5: B3 Avidin-related protein 4/5 with C122S
# B5: AVR4/5(C122S)-b: AVR4/5(C122S) produced in E. coli, non-glycosylated, three additional N-terminal residues (Gln-Thr-Val) (protein, UniProt P56734 25-150, looked up, variant C122S)
# Avidin-related protein 4/5: B3 Avidin-related protein 4/5 with C122S
# modifications: N-terminal Gln-Thr-Val extension
# What was measured:
# [1] = Fluorescent biotin dissociation assay; assay type: binding
# Method: The binding of labelled biotin to avidins was analysed by a method based on the quenching of a biotin-coupled fluorescent probe ArcDia BF560 (ArcDia Ltd., Turku, Finland) due to binding to avidin, as previously described (18). The measurements were performed using a PerkinElmer LS55 luminometer with thermostated cuvette (25 or 50° C.). The signal measured for 3600 sec (25° C.) or 2400 sec (50° C.) was used to determine the dissociation rate constant.
# [2] = Radiobiotin dissociation assay; assay type: binding; conditions: [3H]biotin, various temperatures
# Method: The dissociation rate of [3H]biotin from avidin, AVR4/5 and the avidin mutants was determined as described in (20) at various temperatures. The activation thermodynamic parameters for AVR4/5(C122S) and avidin were determined by analysis of the dependence of the dissociation rate upon temperature using the global fit of all data, as described in (21).
# [3] = Microplate assay: remaining biotin-binding activity after heat treatment; assay type: physicochemical; conditions: 50 mM phosphate buffer, 100 mM NaCl, pH 7.0
# Method: The inactivation of the proteins during heat-treatment was analysed by using a microplate assay (23). The proteins were heated to 99.9° C. in 50 mM phosphate buffer containing 100 mM NaCl (pH 7.0) for 32 minutes. The remaining activity was probed by measuring the ability of the proteins to bind biotinylated alkaline phosphatase by coating the microplate wells with samples of the heated proteins.
# [4] = Differential scanning calorimetry (DSC), heat denaturation; assay type: physicochemical; conditions: for ΔTm, change in Tm upon addition of a three-fold molar excess of biotin / Tm(+biotin) / ΔH (unfolding enthalpy) / Tm(−biotin): DSC; for Tm(+biotin): biotin 3:1 molar ratio biotin:avidin monomer; for ΔH (unfolding enthalpy): sample without biotin; for Tm(−biotin): without biotin, average ± S.D
# Method: The transition midpoint of the heat denaturation (Tm) of the avidin proteins was studied using a Calorimetry Sciences Corporation (CSC) Nano II differential scanning calorimeter, as in previous reports (22,23). Proteins (˜0.5 mg/ml) were analyzed both in the absence and presence of biotin (3:1 molar ratio; biotin:avidin monomer).
# [5] = IAsys optical biosensor (SPR), 2-iminobiotin binding; conditions: 2-iminobiotin surface, 20° C., 50 mM borate buffer pH 9.5, 1 M NaCl
# Method: The biotin-binding characteristics of the different avidins were studied by a surface plasmon resonance (SPR) optical biosensor (IAsys). The binding affinities to the 2-iminobiotin surface in 50 mM borate buffer (pH 9.5, 1 M NaCl) were measured as previously reported (7).
# [6] = system: Proteinase K; experiment: Proteinase K assay (proteolytic resistance, SDS-PAGE); assay type: physicochemical; conditions: for state after incubation with Proteinase K: 16 hours, in the presence or absence of biotin
# Method: The proteolytic resistance of the proteins were studied using proteolysis by Proteinase K, as previously described (7). Protein sample (4 μg) was incubated in the presence of Proteinase K ( 1/25 w/w) at 37° C. for a predetermined time period, denatured by boiling in sample buffer (SDS, 2-mercaptoethanol) and subjected to SDS-PAGE followed by coomassie staining.
# [7] = recombinant protein, earlier report; cited from earlier work
# [8] = system: Proteinase K; conditions: even without bound biotin; refs (8,32); cited from earlier work
# [9] = cited from earlier work
Molecule,Release 1 h (total release of the probe) ([1]; 25° C.),"kdiss, dissociation rate constant ([1]; 25° C.)",Release 1 h (total release of the probe) ([1]; 50° C.),"kdiss, dissociation rate constant ([1]; 50° C.)",biotin binding / dissociation rate in radiobiotin dissociation assay [2],Activity: biotin-binding activity after 32 min treatment at 99.9° C. [3],"Tm, transition midpoint of heat denaturation [4]","ΔTm, change in Tm upon addition of a three-fold molar excess of biotin [4]",Tm(+biotin) [4],ΔH (unfolding enthalpy) [4],Tm(−biotin) [4],"kass, association rate constant [5]",state after incubation with Proteinase K [6],further results
B1,13.1%,1.76 10^−5 s^−1,93.9%,8.00 10^−4 s^−1,resembled AVR4/5(C122S),47%,96.5 °C,27.9 °C,124.4 ± 0.2 °C,126 ± 2.39 kcal/mol,96.5 ± 0.2 °C,(1.7 ± 0.1) × 10^4 M^−1s^−1,remaining intact,–
B2,9.5%,1.94 10^−5 s^−1,94.8%,7.33 10^−4 s^−1,resembled AVR4/5(C122S),98%,111.1 °C,~19 °C,~130^d ° C.,158 ± 9.08 kcal/mol,111.1 ± 0.2 °C,(1.6 ± 0.2) × 10^4 M^−1s^−1,remaining intact,–
B3,–,–,–,–,almost as tightly as avidin,–,–,–,–,–,–,–,–,"biotin binding [7]: almost as tightly as avidin; resistance to cleavage by Proteinase K [8]: resistant to cleavage; Tm, transition midpoint of heat denaturation ([9]; from ref (8)): 106.4 °C"
B4,12.5%,2.77 10^−5 s^−1,93.7%,7.88 10^−4 s^−1,tight biotin binding,72%,–,–,–,–,–,(9.3 ± 0.4) × 10^3 M^−1s^−1,–,"ΔH (unfolding enthalpy) ([9]; DSC, sample without biotin, results from ref (8)): 137 ± 7.89 kcal/mol; Tm(+biotin) ([9]; DSC, with biotin, results from ref (8)): 125.4 ± 0.8 °C; Tm(−biotin) ([9]; DSC, without biotin, results from ref (8)): 106.4 ± 0.8 °C; ΔTm, change in Tm upon addition of a three-fold molar excess of biotin ([9]; DSC, results from ref (8)): 19.5 °C; resistance to the proteolytic activity of Proteinase K ([6]; even without biotin): total resistance"
B5,10.9%,2.31 10^−5 s^−1,88.3%,6.20 10^−4 s^−1,slightly slower dissociation rate,56%,–,17.2 °C,127.1 °C,110 kcal/mol,109.9 °C,–,remaining intact,–
